{"source": "paper PMC7785527", "about": "“Human Short Peptidoglycan Recognition Protein PGLYRP1/Tag-7/PGRP-S Inhibits Listeria monocytogenes Intracellular Survival in Macrophages” (Frontiers in Cellular and Infection Microbiology, 2020)", "proteins": {"B1": {"name": "human recombinant PGLYRP1/Tag-7/PGRP-S with a C-terminal triple DED epitope (natural protein, UniProt O75594 22-196, looked up)", "chain": "QETEDPACCSPIVPRNEWKALASECAQHLSLPLRYVVVSHTAGSSCNTPASCQQQARNVQHYHMKTLGWCDVGYNFLIGEDGLVYEGRGWNFTGAHSGHLWNPMSIGISFMGNYMDRVPTPQAIRAAQGLLACGVAQGALRSNYVLKGHRDVQRTLSPGNQLYHLIQNWPHYRSP", "notes": "called full-sized / full-size; On non-reducing SDS-PAGE the preparation is a mix of monomer (~25 kDa) and disulfide-linked homodimer (~60 kDa) of similar intensity; also called recombinant tagged PGLYRP1"}}, "target": "the molecule itself", "test": "SDS-PAGE without reducing agent (bands identified by MALDI-MS); 3 ug purified PGLYRP1; Laemmli loading buffer without beta-mercaptoethanol (compared with 5 mM beta-mercaptoethanol); Coomassie stained gel"}
{"protein": "B1", "values": [{"measurement": "stoichiometry N", "value": 2}]}
